According to patent US20250002566A1 (FUNDA O OSWALDO CRUZ, published 2025):

Key:
[1] = molecular target: DENV2 envelope (E) protein on virus particles (strain PE/95-3808) (Dengue virus 2); assay: cell-based or functional assay
[2] = molecular target: DENV1 envelope (E) protein on virus particles (strain PE/97-42735) (Dengue virus 1); assay: cell-based or functional assay
[3] = molecular target: T1, ZIKV Envelope (E) protein, recombinant, in its dimeric form (Native Antigen, UK) (Zika virus); assay: thermal unfolding of the ZVPA3-E(Dimer) complex at the estimated stoichiometry, compared with ZVPA3 alone
T1 chain: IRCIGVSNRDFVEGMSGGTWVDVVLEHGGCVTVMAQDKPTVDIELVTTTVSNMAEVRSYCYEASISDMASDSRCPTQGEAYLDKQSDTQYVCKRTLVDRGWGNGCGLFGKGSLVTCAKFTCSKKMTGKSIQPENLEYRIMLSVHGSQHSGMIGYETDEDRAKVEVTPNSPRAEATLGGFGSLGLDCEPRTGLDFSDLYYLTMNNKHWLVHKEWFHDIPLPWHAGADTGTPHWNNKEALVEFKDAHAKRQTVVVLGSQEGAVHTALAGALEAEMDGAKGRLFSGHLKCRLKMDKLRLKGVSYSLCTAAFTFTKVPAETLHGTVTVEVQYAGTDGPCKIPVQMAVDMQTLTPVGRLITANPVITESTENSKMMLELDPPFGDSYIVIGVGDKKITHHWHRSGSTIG

[4] = molecular target: T1, ZIKV Envelope (E) protein, recombinant, …; assay: microscale thermophoresis (MST), 150 nM dye-labelled ZIKV E, ZVPA3 titrated in 16 serial 1:2 dilutions, three independent experiments
[5] = molecular target: T1, ZIKV Envelope (E) protein, recombinant, …; assay: estimated from MST concentrations at maximum binding (ca. 3x10^13 E dimer molecules with ca. 8x10^12 ZVPA3 molecules)

B1: ZVPA3 (designed binder)
chain: MGSSHHHHHHSSGLVPRGSHMAKGDPHVLLTTSAGNIELELDSQKAPVSVQNFLDYVNNGFYNNTTFHSVIPGYMIQGGGYTEDMQQKQPNPPIKNEADNGLRNTRGTIAMMRTEDKDSATSQFFINVADNAYADHGQTRYGFAVFGKVVKGMDVADKISQVPTHDVGPYQSVPSKPVVILSATVLPGSGC
notes: Produced as a monomer, ca. 20 kDa; In the MST with virus particles ZVPA3 carried the RED NT-647-NHS dye; The crystal structure of ZVPA3 alone is PDB 7ZFM; also called ZVAP3; designed protein
- EC50, plaque reduction neutralization test (PRNT) of DENV2 on Vero cells [1]: 980 nM
- EC50, plaque reduction neutralization test (PRNT) of DENV1 on Vero cells [2]: 870 nM
- stability gain of the complex against ZVPA3 alone (thermal unfolding) [3]: ~5 ° C.
- Kd [4]: 86.6 nM
- stoichiometry ratio ZVPA3:E(Dimer) [5]: 3.75 E(Dimer) per ZVPA3
